B1: NHE III1 of c-MYC promoter (dsDNA)
DNA 1: TGGGGAGGGTGGGGAGGGTGGGGAAGG
DNA 2: CCTTCCCCACCCTCCCCACCCTCCCCA
B2: Oct1 binding site (dsDNA)
DNA 1: TGTCGAATGCAAATCACTAGAA
DNA 2: TTCTAGTGATTTGCATTCGACA
B3: p150 consensus sequence (CS) (dsDNA)
DNA 1: GGATCACTGGGTGGGAATCACGCT
DNA 2: AGCGTGATTCCCACCCAGTGATCC

Legend:
GST-p150 [1] = target: T1, GST-p150 (human, UniProt F5H433 1-1005); experiment: EMSA; 100 ng protein, 200 ng poly(dA-dT); 10 mM HEPES pH 7.5, 25 nM KCl (so in the source), 2.5 mM MgCl (so in the source), 5 µl ZnCl, 3% glycerol, 2 µg BSA, 200 ng poly(dA-dT); temperature not stated; settings: protein: recombinant; tags: GST; label: 32P (probe); blunt
T1 sequence: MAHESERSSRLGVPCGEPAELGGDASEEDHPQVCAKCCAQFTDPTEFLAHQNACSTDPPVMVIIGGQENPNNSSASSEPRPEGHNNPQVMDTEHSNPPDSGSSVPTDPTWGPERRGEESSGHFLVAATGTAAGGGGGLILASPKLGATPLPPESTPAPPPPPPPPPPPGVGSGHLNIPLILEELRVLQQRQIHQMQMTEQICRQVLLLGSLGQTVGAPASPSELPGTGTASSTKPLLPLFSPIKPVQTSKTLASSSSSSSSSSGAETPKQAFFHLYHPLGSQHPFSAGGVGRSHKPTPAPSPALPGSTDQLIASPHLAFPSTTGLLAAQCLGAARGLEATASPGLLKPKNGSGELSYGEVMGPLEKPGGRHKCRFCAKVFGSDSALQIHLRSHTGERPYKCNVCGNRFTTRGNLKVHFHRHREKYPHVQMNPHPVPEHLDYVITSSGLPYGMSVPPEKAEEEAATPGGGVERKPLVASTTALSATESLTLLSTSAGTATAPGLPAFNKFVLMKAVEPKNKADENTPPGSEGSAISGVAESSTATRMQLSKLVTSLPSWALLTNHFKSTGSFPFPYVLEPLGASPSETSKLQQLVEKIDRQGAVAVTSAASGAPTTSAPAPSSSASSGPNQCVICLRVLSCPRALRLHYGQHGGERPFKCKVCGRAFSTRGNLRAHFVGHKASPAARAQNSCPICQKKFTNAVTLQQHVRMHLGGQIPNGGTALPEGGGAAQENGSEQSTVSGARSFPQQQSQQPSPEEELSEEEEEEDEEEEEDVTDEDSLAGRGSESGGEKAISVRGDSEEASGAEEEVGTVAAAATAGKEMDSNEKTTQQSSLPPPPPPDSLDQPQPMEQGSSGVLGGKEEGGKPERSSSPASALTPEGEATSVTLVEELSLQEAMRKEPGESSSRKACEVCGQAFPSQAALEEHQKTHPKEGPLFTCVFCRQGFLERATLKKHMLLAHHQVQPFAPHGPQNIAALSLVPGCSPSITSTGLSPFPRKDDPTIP

GST-p150 [2] = target: T1, GST-p150; experiment: competition; 50x unlabeled Oct1 vs labeled NHE III1; 10 mM HEPES pH 7.5, 25 nM KCl (so in the source), 2.5 mM MgCl (so in the source), 5 µl ZnCl, 3% glycerol, 2 µg BSA, 200 ng poly(dA-dT); temperature not stated; settings: protein: recombinant; tags: GST; blunt

Binder | binding result (GST-p150 [1]) | binding result (GST-p150 [2])
B1 | binds | 
B2 |  | no binding
B3 | binds | 
